Experimental data as given in the Human Domainome abundance scans (Beltran et al. 2025).

B1: POU domain, class 3, transcription factor 4, residues 280 to 335; numbered along this chain, P49335 (parent)
chain: KKRTSIEVSVKGVLETHFLKCPKPAAQEISSLADSLQLEKEVVRVWFCNRRQKEKR
B2: Tesmin, residues 368 to 403; numbered along this chain, Q9Y4I5 (parent)
chain: KGCNCRRSGCLKNYCECYEAQIMCSSICKCIGCKNY

Variants of: B1
Experiment: abundance fitness (aPCA) (normalised: wild type 0, dead -1); higher = more abundant; growth selection in yeast, the domain comes from the species named
Conditions: Homo sapiens

Abundance fitness: each site, then its substitutions
K2: S -0.161; Y -0.159; H -0.258; P -0.559; T -0.277; D -0.342; E -0.526; R -0.225; N -0.058; A -0.433; Q -0.637; C -0.8; V -0.124; M -0.201; L -0.093
I6: G -0.197; A -0.437; C -0.626; E -0.303; P -0.169; Q -0.123; F -0.397; R -0.292; W -0.244; V -0.215; Y -0.613; L 0.018; H -0.128; S -0.152; T -0.201; D -0.249; N -0.249
S5: W -0.162; G 0.27; Q 0.268; I -0.107; V 0.275; N 0.216; F -0.155; H -0.187; K 0.226; A 0.11; D 0.405; E 0.565; T 0.217; P -0.158; M 0.289; C 0.2; L -0.045
R3: C 0.174; A -0.162; H -0.277; V -0.15; T 0.205; M 0.011; I 0.104; L 0.306; Q -0.354; W -0.706; G 0.077; N 0.033; P 0.122; S 0.261; Y 0.069; F -0.226; K 0.03
T4: H -0.925; D 0.34; A -0.145; W -0.486; F -0.26; R -0.419; C -0.249; S 0.213; K 0.011; M 0.108; I 0.067; L -0.021; E 0.034; P -0.178; Y -0.248; G -0.189
E7: Q 0.013; V -0.362; K 0.271; L -0.163; G 0.381; S 0.528; R -0.093; M -0.191; P 0.607; A -0.082; D 0.327; T 0.526; Y -0.285; W -0.014; F -0.513; H 0.105; I -0.357
V8: T 0.307; L 0.293; G 0.49; W -0.045; H 0.07; D 0.006; K 0.842; C -0.326; I 0.04; R 0.362; Y 0.231; Q 0.405; S 0.546; N 1.06; P 0.736; M 0.527; A 0.354; E 0.623
S9: G 0.172; E 0.443; C -0.017; A -0.056; H 0.277; D 0.539; F -0.348
K1: G -0.243; W 0.033; R -0.312; E -0.049; D -0.185; M -0.03; S -0.132

Variants of: B2
Experiment: as above
Conditions: Homo sapiens

Abundance fitness, by site and new letter:
G32: Q -0.414; E -0.033; R -0.249; T -0.655; L -0.96; V -0.443; C -0.592; D -0.454; S -0.087; P -0.082; W -0.349; A -0.196
I31: K -0.108; E 0.311; A 0.309; W -0.099; M 0.081; T 0.211; G 0.15; V 0.125; C -0.02; N 0.083; L -0.021; P 0.047; S 0.147; F -0.171; Y -0.322; Q 0.114; R 0.056
S25: E -0.315; T -0.168; M -0.324; W -0.45; H -0.269; V -0.509; A -0.051; G 0.093; D -0.334; C -0.393; F -0.711; P -0.521; L -0.415; K -0.196
S26: D -0.101; F -0.651; C -0.98; K 0.032; E 0.228; V -0.159; Q 0.091; L -0.559; N -0.079; R -0.241; W -1.91; P -0.624; A 0.05; G 0.089; M -0.384; T -0.095
I27: K 0.153; V 0.112; A 0.162; L -0.089; Q 0.176; Y -0.431; N 0.04; C -1.72; D 0.119; P 0.118; T 0.159; E 0.207; W -0.703; M -0.014; R 0.085; S 0.009
K29: P -0.091; Q 0.18; I -0.334; D 0.171; T 0.024; R 0.034; G 0.24; N 0.054; W -0.186; S 0.051; V 0.011; E 0.238; C -0.048; M -0.016; H 0.419
C28: V -0.42; T -0.14; M -0.411; P -0.195; G -0.219; Y -0.973; A -0.248; W -0.7; R -0.575; D -0.3; E -0.157; L -0.738; K -0.377; S -0.169; Q -0.564
C33: R -0.245; M -0.147; V -0.055; Q -0.362; P -0.014; E 0.109; H -0.106; D -0.064; A -0.011; K -0.123; W -0.449; S -0.121; T -0.14; L -0.232; G -0.025
M23: S -0.081; D 0.152; P -0.136; G 0.127; V -0.1; T -0.419; E 0.106; R -0.075; K -0.057; H -0.198; L -0.462; Q -0.016; W -0.283
N35: A 0.141; L -0.861; Q 0.114; E 0.11; W -0.233; F -0.614; R -0.019; T -0.167; C -0.384; P -0.055; K -0.44; G 0.211; S -0.023; Y -0.64; D 0.18; V -0.362
K34: T 0.057; C 0.064; S 0.073; L 0.121; G 0.266; A 0.185; W 0.003; I -0.503; D 0.295; N 0.06; V 0.152; Q -0.107; P 0.161; E 0.182
Y36: W 0.02; R 0.305; G 0.193; T 0.15; S -0.016; A 0.209; P 0.31; N 0.02; D 0.145; L -0.05; K -0.317; I 0.371; V 0.286
C30: V -0.352; R -0.425; L -1; H -0.498; K -0.249; P -0.209; A -0.252; G -0.29; T -0.468; E -0.226; S -0.355; Q -0.196; M -1.15; I -0.945
C24: M -0.378; W -0.647; L -0.402; V -0.421; G -0.008; T -0.294; A -0.15; S -0.201; K 0.262; P -0.21; E 0.051; Q -0.072; D -0.107
